The source of these data is paper PMC5453731 (Cell chemical biology, 2017).

In the assay the target is T1, Rpn1^PC1 (Rpn1^391–642) (yeast (BY4741), UniProt P38764 391-642).
T1 sequence (looked up): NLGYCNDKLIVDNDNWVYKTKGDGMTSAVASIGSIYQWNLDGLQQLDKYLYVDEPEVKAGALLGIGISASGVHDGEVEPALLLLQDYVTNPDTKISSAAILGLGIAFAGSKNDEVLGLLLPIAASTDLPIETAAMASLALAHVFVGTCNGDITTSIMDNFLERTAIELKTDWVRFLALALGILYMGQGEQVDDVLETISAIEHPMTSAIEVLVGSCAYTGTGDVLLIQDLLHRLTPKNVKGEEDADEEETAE
Nature of the assay: NMR titration.

B1: Dsk2^UBL (domain or fragment, yeast (BY4741), UniProt P48510 1-76, looked up)
chain: MSLNIHIKSGQDKWEVNVAPESTVLQFKEAINKANGIPVANQRLIYSGKILKDDQTVESYHIQDGHSVHLVKSQPK
In general, Kd refers to the equilibrium constant for the complex coming apart. High values mean a looser complex, low ones a tighter complex. With B1, the Kd was 22 ± 12 µM.

B2: Ubp6^UBL (domain or fragment, yeast (BY4741), UniProt P43593 1-80, looked up)
chain: MSGETFEFNIRHSGKVYPITLSTDATSADLKSKAEELTQVPSARQKYMVKGGLSGEESIKIYPLIKPGSTVMLLGTPDAN
modifications: 15N-labelled
On to B2, for which the Kd is 40 ± 31 µM.

B3: Rub1 (natural protein, yeast (BY4741), UniProt Q03919 1-77, looked up)
chain: MIVKVKTLTGKEISVELKESDLVYHIKELLEEKEGIPPSQQRLIFQGKQIDDKLTVTDAHLVEGMQLHLVLTLRGG
modifications: 15N-labelled
For the molecule B3, the Kd turned out to be 280 ± 20 µM.
